This is an account of results in patent US7807881B2, “Methods to confer herbicide resistance” (Athenix Corp., priority 2003, dated 2010).

In one data set the test system is E. coli ΔaroA. The data set can be described thus: Genetic complementation of aroA (EPSP synthase) deletion mutant. The class given is cell-based. As to conditions: ΔaroA plated on LB, M63, and M63 with phenylalanine, tryptophan, tyrosine. The text has this: The E. coli aroA gene codes for EPSP synthase, the target enzyme for glyphosate. […] However, genes encoding EPSPS activity can restore ability to grow […] upon aroA mutant E. coli strains. Thus, a test for genetic complementation of an aroA mutant is a highly sensitive method to test if a gene is capable of functioning as an EPSPS in E. coli. Such tests for gene function by genetic complementation are known in the art.
A deletion of the aroA gene was created in E. coli XL-1 MRF′ (Stratagene) by PCR/recombination methods known in the art and outlined by Datsenko and Wanner, (2000) Proc. Natl. Acad. Sci. USA 97:6640-6645. This system is based on the Red system that allows for chromosomal disruptions of targeted sequences. A large portion (1067 nt of the 1283 nt) of the aroA coding region was disrupted by the engineered deletion.
The ability of an EPSPS to complement the mutant phenotype of ΔaroA was confirmed. Clone pAX482, an E. coli expression vector containing the wild-type E. coli aroA gene, was transformed into ΔaroA, and transformed cells were selected. These cells (containing a functional aroA gene residing on a plasmid) were then plated on LB media, M63, and M63 with amino acid supplements. […]

A short description of data set [1]: In vitro modification of C14 labeled glyphosate, products analysed by HPLC. The class given is biochemical. The note with it: 100 ng protein, 2 mM glyphosate, Na-Citrate pH 6.0, 1 mM TPP, 2 mM MgCl2, 60 minutes. As to the method:
The ability of GDC-1 to modify glyphosate in vitro was tested by incubating GDC-1 with a mixture of radiolabeled and non-labeled glyphosate, and analyzing the reaction products by HPLC.
100 ng of GDC-1 purified protein was incubated with 20,000 cpm of C^14 labeled glyphosate (NaOOCCH2NH^14CH2PO3H2; Sigma catalog #G7014), mixed with unlabelled glyphosate to a final concentration of 2 mM in a reaction buffer of 200 mM Na-Citrate, pH 6.0, 1 mM TPP, 2 mM MgCl2. Reaction was allowed to proceed 60 minutes, then 5 μl was applied to HPLC column (Dionex AminoPac PA10 analytical (and guard) column, anion exchange resin; Dionex Corporation). The column was equilibrated with 150 mM sodium hydroxide. Fractions were eluted with a sodium acetate gradient of 150-300 mM sodium acetate. Single drop (40 uL) fractions were collected, and the radioactivity present in each fraction determined using a 96-well scintillation counter. […] Control experiments lacking purified GDC-1 show no peak at this elution time.

Data set [2] in a line: Standard pyruvate decarboxylase assay, coupled with alcohol dehydrogenase (absorbance at 340 nm). The class given is biochemical. The note with it: 100 ng of GDC-1 protein; decrease in absorbance at 340 nm. As for the experimental part:
100 ng of GDC-1 protein was tested for activity in a standard pyruvate decarboxylase assay (Gounaris et al. (1971) J. of Biol. Chem. 246:1302-1309). This assay is a coupled reaction where in the first step the pyruvate decarboxylase (PDC) converts pyruvate to acetaldehyde and CO2. The acetaldehyde produced in this reaction is a substrate for alcohol dehydrogenase, which converts acetaldehyde and β-NADH to ethanol and β-NAD. Thus, PDC activity is detected by virtue of utilization of β-NADH as decrease in absorbance at 340 nm in a spectrophotometer. GDC-1 as well as a control enzyme (pyruvate decarboxylase, Sigma) were tested in this assay.

For the next data set, the system named is E. coli. Description: Growth of E. coli clones in M9 minimal media containing glyphosate (OD600). The data set is classed as cell-based. The note with it: 37° C., 28 hours after inoculation, triplicate. As for the experimental part:
Starter cultures of E. coli containing GDC-1 (full), GDC-2, or vector alone were grown overnight in LB media, diluted 1:1000 into 3 ml M9 minimal media containing 0, 2, 5, 10, 20 and 30 mM glyphosate and grown at 37° C. Each strain was grown in triplicate at each concentration. OD600 was measured at 0, 7, 24, and 28 hours after inoculation.

Data set [3] is described as follows: Acetolactate synthase activity (acetoin detection, absorbance 525 nm). The data set is classed as biochemical. The note with it: 50 mM pyruvate, pH 7.0, 2 hours at 37° C. As for the experimental part: Acetolactate synthases are decarboxylating enzymes that condense two pyruvate molecules to form acetolactate with the release of a CO2 moiety from one of the pyruvate substrates. In the detection of the enzymatic reaction described by Pang and Duggleby (Pang and Duggleby (1999) Biochemistry 18:5222-5231), the product acetolactate is converted to acetoin by incubation with 1% H2SO4 for 15 minutes at 60° C. followed by neutralization with KOH. The acetoin is then detected as described by Westerfeld (Westerfeld (1945) J. Biol. Chem. 161:495-502), using 0.15% creatine and 1.5% alpha-naphthol (dissolved in 2.5 N NaOH). The red colored reaction product is quantified by absorbance at 525 nm.
Samples containing either 5 μg or 10 μg of GDC-2 were incubated in 50 mM pyruvate, 1 mM […] pyrophosphate, 10 mM MgCl2, 0.01 mM Flavin adenine dinucleotide (FAD), 100 mM potassium phosphate buffer pH 7.0 (total reaction volume of 50 μl) for 2 hours at 37° C. The reaction was stopped by the addition of 1 μl of 50% sulfuric acid (H2SO4) and incubated at 60° C. for 15 minutes. The reaction was neutralized by the addition of 30 μl of 1 N KOH followed by the addition of 10 μl of 1.5% creatine and 10 μl of 15% alpha-napthol dissolved in 2.5 N NaOH. The red colored reaction product was quantified by absorbance at 525 nm.

B1: GDC-1: Glyphosate resistance-conferring decarboxylase protein (SEQ ID NO:22) with TPP-binding domains, homologous to pyruvate decarboxylase (protein)
chain: MASINIRVQNLEQPMDVAEYLFRRLHEIGIRSIHGLPGDYNPLALDYLPSCGLRWVGSVNELNAAYAADGYARVKQMGALITTFGVGELSAINGVAGAFSEHVPVVHIVGCPSTASQRNGMLLHHTLGNGDFNIFANMSAQISCEVAKLTNPAEIATQIDHALRVCFIRSRPVYIMLPTDMVQAKVEGARLKEPIDLSEPPNDPEKEAYVVDVVLKYLRAAKNPVILVDACAIRHRVLDEVHDLIEKTNLPVFVTPMGKGAVNEEHPTYGGVYAGDGSHPPQVKDMVESSDLILTIGALKSDFNTAGFSYRTSQLNTIDLHSDHCIVKYSTYPGVQMRGVLRQVIKQLDASEINAQPAPVVENEVAKNRDNSPVITQAFFWPRVGEFLKKNDIVITETGTANFGIWDTKFPSGVTALSQVLWGSIGWSVGACQGAVLAAADDNSDRRTILFVGDGSFQLTAQELSTMIRLKLKPIIFVICNDGFTIERFIHGMEAEYNDIANWDFKALVDVFGGSKTAKKFAVKTKDELDSLLTDPTFNAAECLQFVELYMPKEDAPRALIMTAEASARNNAKTE
modifications: Fungal isolate from soil sample
For B1, the “Complementation of the aroA mutation (growth of ΔaroA on M63 minimal media)” value in the data set with E. coli ΔaroA is “neither GDC-1 nor GDC-2 are capable of complementing the aroA mutation”. In data set [1], the “Ability to modify glyphosate in vitro” value is listed as “converts a portion of the labeled glyphosate to a product”. Moreover, the Pyruvate decarboxylase activity entry in data set [2] is “showed activity as a pyruvate decarboxylase”. Besides, the “OD600 Mean” value with E. coli (0 mM glyphosate) turned out to be 0.049; with E. coli (2 mM glyphosate) it was 0.056; in the data set with E. coli (5 mM glyphosate), 0.055; in the data set with E. coli (10 mM glyphosate) it was 0.057; in the data set on E. coli (20 mM glyphosate), 0.058.

B2: GDC-2: Glyphosate resistance-conferring decarboxylase protein (SEQ ID NO:15) with TPP-binding domains, homologous to acetolactate synthase (protein)
chain: MMLRSRQASKALRALGQARHFTSTTQPAAVQAPRKVASGQRNQATAATATSAAPNVRATPSPAFNAEEQQQQKHSHVQPLVNPQKSDMDESFIGKTGGEIFHEMMLRQGVKHIFGYPGGAILPVFDAIYNSKHFDFILPRHEQGAGHMAEGYARASGKPGVVLVTSGPGATNVVTPMQDALSDGTPLVVFCGQVPTSAIGSDAFQEADVVGISRACTKWNVMVKNVAELPRRINEAFEIATSGRPGPVLVDLPKDVTAGILRRAIPTETALPALPSAASRAAMESSRKHLEHTIKRVADLVNKAKQPVIYAGQGIIQSEGGPELLKELADKASIPVTTTLQGLGGFDELDEKSLHMLGMHGSAYANMAMQEADLIIALGARFDDRVTLNVAKFAPGARAAAAEKRGGIVHFEVMPKNINKVVQATEAVEGNVGSNLKLLLPEVQAKTMDDRKEWFGKINEWKKKWPLSHYERAERHGLIKPQTLIEELSKLTADRKDKTYIATGVGQHQMWTAQHFRWRHPRSMITSGGLGTMGFGLPAAIGAKVAQPDALVFDIDGDASFGMTLTELATAAQFNIGVKVIVLNNEEQGMVTQWQNLFYEDRYAHTHQVNPDFMKLAESMRVQGRRCVDPEDVVDSLKWLINTDGPALLEVVTDKKVPVLPMVPAGSALHEFLVFDGEKDKKRRELMRERTSGLHG
modifications: Fungal isolate from soil sample
B2: the entries for the “Absorbance 525 nm (acetolactate synthase activity)” value in data set [3] (5 μg GDC-2) and in data set [3] (10 μg GDC-2) were 1.99 and 3.13, respectively. Also, the “Complementation of the aroA mutation (growth of ΔaroA on M63 minimal media)” value in the data set with E. coli ΔaroA is “neither GDC-1 nor GDC-2 are capable of complementing the aroA mutation”. Further, the “OD600 Mean” value is listed as 0.050 with E. coli (0 mM glyphosate); 0.054 in the data set on E. coli (2 mM glyphosate); 0.056 with E. coli (5 mM glyphosate); 0.056 in the data set with E. coli (10 mM glyphosate); 0.058 in the data set with E. coli (20 mM glyphosate).
